Source: article PMC2112199

Target: Acanthamoeba actin (Acanthamoeba)

## Acanthamoeba actin (natural protein)
  kon: 7.8e+06 M⁻¹ s⁻¹
